Laboratory results published in publication PMC9482650, “Quantitative fragmentomics allow affinity mapping of interactomes” (Nature Communications, 2022).

T1: SNTG2, Q9NY99
T1 sequence (Q9NY99 68-166, limits assumed, looked up): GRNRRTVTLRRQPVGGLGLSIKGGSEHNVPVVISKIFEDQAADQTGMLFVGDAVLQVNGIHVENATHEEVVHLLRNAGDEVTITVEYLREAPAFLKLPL

T2: TIAM2, Q8IVF5
T2 sequence (Q8IVF5 885-986, limits assumed, looked up): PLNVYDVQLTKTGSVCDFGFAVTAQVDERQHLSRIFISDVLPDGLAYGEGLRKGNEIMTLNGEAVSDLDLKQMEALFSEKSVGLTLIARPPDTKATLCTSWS

T3: APBA3_1, O96018
T3 sequence (O96018 389-490, limits assumed, looked up): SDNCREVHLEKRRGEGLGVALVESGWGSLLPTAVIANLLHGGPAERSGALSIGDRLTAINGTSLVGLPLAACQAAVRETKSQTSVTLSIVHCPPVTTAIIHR

T4: ARHGEF11, O15085
T4 sequence (O15085 42-136, limits assumed, looked up): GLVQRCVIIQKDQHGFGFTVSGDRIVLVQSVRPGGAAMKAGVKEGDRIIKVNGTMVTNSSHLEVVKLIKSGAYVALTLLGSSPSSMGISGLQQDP

T5: HTRA4, P83105
T5 sequence (P83105 378-476, limits assumed, looked up): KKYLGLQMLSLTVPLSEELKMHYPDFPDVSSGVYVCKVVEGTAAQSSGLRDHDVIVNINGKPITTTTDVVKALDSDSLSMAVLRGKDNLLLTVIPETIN

T6: NHERF3_4, Q5T2W1
T6 sequence (Q5T2W1 373-468, limits assumed, looked up): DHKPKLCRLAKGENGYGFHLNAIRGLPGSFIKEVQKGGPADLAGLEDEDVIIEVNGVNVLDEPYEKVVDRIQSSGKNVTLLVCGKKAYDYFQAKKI

T7: LNX2_3, Q8N448
T7 sequence (Q8N448 463-564, limits assumed, looked up): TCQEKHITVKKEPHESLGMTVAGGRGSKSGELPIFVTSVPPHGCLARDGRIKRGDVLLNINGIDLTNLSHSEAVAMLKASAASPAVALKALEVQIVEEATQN

T8: PDZRN3_1, Q9UPQ7
T8 sequence (Q9UPQ7 244-349, limits assumed, looked up): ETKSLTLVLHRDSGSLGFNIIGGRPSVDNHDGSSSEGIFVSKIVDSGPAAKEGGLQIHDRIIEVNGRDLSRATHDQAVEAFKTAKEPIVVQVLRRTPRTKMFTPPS

T9: SNTB1, Q13884
T9 sequence (Q13884 107-205, limits assumed, looked up): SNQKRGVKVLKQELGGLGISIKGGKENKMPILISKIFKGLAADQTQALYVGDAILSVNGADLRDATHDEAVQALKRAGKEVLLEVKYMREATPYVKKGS

T10: PDZD2_2, O15018
T10 sequence (O15018 329-429, limits assumed, looked up): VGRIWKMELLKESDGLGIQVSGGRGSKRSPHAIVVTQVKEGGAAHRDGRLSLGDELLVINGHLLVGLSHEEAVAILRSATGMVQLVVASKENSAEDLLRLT

T11: LIN7C, Q9NUP9
T11 sequence (Q9NUP9 88-185, limits assumed, looked up): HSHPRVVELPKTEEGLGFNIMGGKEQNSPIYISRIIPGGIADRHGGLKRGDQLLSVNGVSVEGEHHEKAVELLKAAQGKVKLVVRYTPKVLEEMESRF

T12: GRIP1_4, Q9Y3R0
T12 sequence (Q9Y3R0 467-571, limits assumed, looked up): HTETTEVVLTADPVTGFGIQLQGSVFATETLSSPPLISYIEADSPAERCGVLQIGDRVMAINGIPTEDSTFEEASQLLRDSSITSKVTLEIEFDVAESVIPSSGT


Biological target: DLG2_2, Q15700
Sequence (Q15700 189-283): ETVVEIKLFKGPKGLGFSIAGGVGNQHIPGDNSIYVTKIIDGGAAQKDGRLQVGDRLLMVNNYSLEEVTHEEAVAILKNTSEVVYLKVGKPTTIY
Experiment: holdup assay
Set-up: key: below the threshold = too weak to quantify, mostly under pKd 3.1 to 4
Settings: plain residues with an end cap or a label only (N-terminal biotin on a linker: ado-ado)

Binder	pKd
QKNKDREYYV [NRXN3, Q9HDB5]	below the threshold

Biological target: T1, SNTG2, Q9NY99
Experiment: holdup assay
Set-up: key: below the threshold = too weak to quantify, mostly under pKd 3.1 to 4
Settings: plain residues with an end cap or a label only (N-terminal biotin on a linker: ado-ado)

Binder	pKd
QKNKDREYYV [NRXN3, Q9HDB5]	3.5

Biological target: SCRIB_2, Q14160
Sequence (Q14160 857-960): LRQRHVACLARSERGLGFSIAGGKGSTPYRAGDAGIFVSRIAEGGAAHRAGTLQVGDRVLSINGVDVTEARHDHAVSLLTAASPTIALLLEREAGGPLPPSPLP
Experiment: holdup assay
Set-up: key: below the threshold = too weak to quantify, mostly under pKd 3.1 to 4
Settings: plain residues with an end cap or a label only (N-terminal biotin on a linker: ado-ado)

Binder	pKd
QKNKDREYYV [NRXN3, Q9HDB5]	below the threshold

Biological target: DLG1_3, Q12959
Sequence (Q12959 457-571): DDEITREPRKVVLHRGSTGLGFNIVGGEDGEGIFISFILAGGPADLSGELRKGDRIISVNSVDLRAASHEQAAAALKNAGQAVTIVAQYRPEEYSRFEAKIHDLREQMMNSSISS
Experiment: holdup assay
Set-up: key: below the threshold = too weak to quantify, mostly under pKd 3.1 to 4
Settings: plain residues with an end cap or a label only (N-terminal biotin on a linker: ado-ado)

Binder	pKd
QKNKDREYYV [NRXN3, Q9HDB5]	below the threshold

Biological target: T2, TIAM2, Q8IVF5
Experiment: holdup assay
Set-up: key: below the threshold = too weak to quantify, mostly under pKd 3.1 to 4
Settings: plain residues with an end cap or a label only (N-terminal biotin on a linker: ado-ado)

Binder	pKd
QKNKDREYYV [NRXN3, Q9HDB5]	4.41

Biological target: T3, APBA3_1, O96018
Experiment: holdup assay
Set-up: key: below the threshold = too weak to quantify, mostly under pKd 3.1 to 4
Settings: plain residues with an end cap or a label only (N-terminal biotin on a linker: ado-ado)

Binder	pKd
QKNKDREYYV [NRXN3, Q9HDB5]	below the threshold

Biological target: Inadl_6, Q8NI35
Sequence (Q8NI35 1058-1167): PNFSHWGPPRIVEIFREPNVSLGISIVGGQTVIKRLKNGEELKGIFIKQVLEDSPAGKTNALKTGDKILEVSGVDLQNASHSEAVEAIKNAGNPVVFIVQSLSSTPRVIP
Experiment: holdup assay
Set-up: key: below the threshold = too weak to quantify, mostly under pKd 3.1 to 4
Settings: plain residues with an end cap or a label only (N-terminal biotin on a linker: ado-ado)

Binder	pKd
QKNKDREYYV [NRXN3, Q9HDB5]	below the threshold

Biological target: T4, ARHGEF11, O15085
Experiment: holdup assay
Set-up: key: below the threshold = too weak to quantify, mostly under pKd 3.1 to 4
Settings: plain residues with an end cap or a label only (N-terminal biotin on a linker: ado-ado)

Binder	pKd
QKNKDREYYV [NRXN3, Q9HDB5]	4.2

Biological target: LNX1_3, Q8TBB1
Sequence (Q8TBB1 500-596): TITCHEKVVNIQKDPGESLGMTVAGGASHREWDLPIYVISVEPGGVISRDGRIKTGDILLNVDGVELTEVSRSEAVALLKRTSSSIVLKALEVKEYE
Experiment: holdup assay
Set-up: key: below the threshold = too weak to quantify, mostly under pKd 3.1 to 4
Settings: plain residues with an end cap or a label only (N-terminal biotin on a linker: ado-ado)

Binder	pKd
QKNKDREYYV [NRXN3, Q9HDB5]	4.09

Biological target: SNX27, Q96L92
Experiment: holdup assay
Set-up: key: below the threshold = too weak to quantify, mostly under pKd 3.1 to 4
Settings: plain residues with an end cap or a label only (N-terminal biotin on a linker: ado-ado)

Binder	pKd
QKNKDREYYV [NRXN3, Q9HDB5]	3.64

Biological target: T5, HTRA4, P83105
Experiment: holdup assay
Set-up: key: below the threshold = too weak to quantify, mostly under pKd 3.1 to 4
Settings: plain residues with an end cap or a label only (N-terminal biotin on a linker: ado-ado)

Binder	pKd
QKNKDREYYV [NRXN3, Q9HDB5]	below the threshold

Biological target: LAP2, Q96RT1
Sequence (Q96RT1 other isoform, or with tags, fused parts or gaps): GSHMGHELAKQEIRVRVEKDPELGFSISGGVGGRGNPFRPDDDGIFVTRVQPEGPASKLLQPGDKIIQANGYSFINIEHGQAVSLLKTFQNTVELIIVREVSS
Experiment: holdup assay
Set-up: key: below the threshold = too weak to quantify, mostly under pKd 3.1 to 4
Settings: plain residues with an end cap or a label only (N-terminal biotin on a linker: ado-ado)

Binder	pKd
QKNKDREYYV [NRXN3, Q9HDB5]	below the threshold

Biological target: T6, NHERF3_4, Q5T2W1
Experiment: holdup assay
Set-up: key: below the threshold = too weak to quantify, mostly under pKd 3.1 to 4
Settings: plain residues with an end cap or a label only (N-terminal biotin on a linker: ado-ado)

Binder	pKd
QKNKDREYYV [NRXN3, Q9HDB5]	below the threshold

Biological target: T7, LNX2_3, Q8N448
Experiment: holdup assay
Set-up: key: below the threshold = too weak to quantify, mostly under pKd 3.1 to 4
Settings: plain residues with an end cap or a label only (N-terminal biotin on a linker: ado-ado)

Binder	pKd
QKNKDREYYV [NRXN3, Q9HDB5]	below the threshold

Biological target: TJP1_3, Q07157
Sequence (Q07157 416-512): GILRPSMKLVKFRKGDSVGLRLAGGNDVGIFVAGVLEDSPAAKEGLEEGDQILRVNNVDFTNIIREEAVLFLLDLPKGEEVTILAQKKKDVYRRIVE
Experiment: holdup assay
Set-up: key: below the threshold = too weak to quantify, mostly under pKd 3.1 to 4
Settings: plain residues with an end cap or a label only (N-terminal biotin on a linker: ado-ado)

Binder	pKd
QKNKDREYYV [NRXN3, Q9HDB5]	below the threshold

Biological target: T8, PDZRN3_1, Q9UPQ7
Experiment: holdup assay
Set-up: key: below the threshold = too weak to quantify, mostly under pKd 3.1 to 4
Settings: plain residues with an end cap or a label only (N-terminal biotin on a linker: ado-ado)

Binder	pKd
QKNKDREYYV [NRXN3, Q9HDB5]	below the threshold

Biological target: AHNAK1, Q09666
Sequence (Q09666 4-100): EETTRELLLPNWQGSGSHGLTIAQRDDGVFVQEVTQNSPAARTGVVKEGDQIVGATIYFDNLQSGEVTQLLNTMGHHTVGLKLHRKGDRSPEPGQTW
Experiment: holdup assay
Set-up: key: below the threshold = too weak to quantify, mostly under pKd 3.1 to 4
Settings: plain residues with an end cap or a label only (N-terminal biotin on a linker: ado-ado)

Binder	pKd
QKNKDREYYV [NRXN3, Q9HDB5]	below the threshold

Biological target: T9, SNTB1, Q13884
Experiment: holdup assay
Set-up: key: below the threshold = too weak to quantify, mostly under pKd 3.1 to 4
Settings: plain residues with an end cap or a label only (N-terminal biotin on a linker: ado-ado)

Binder	pKd
QKNKDREYYV [NRXN3, Q9HDB5]	3.65

Biological target: LNX1_2, Q8TBB1
Sequence (Q8TBB1 371-470): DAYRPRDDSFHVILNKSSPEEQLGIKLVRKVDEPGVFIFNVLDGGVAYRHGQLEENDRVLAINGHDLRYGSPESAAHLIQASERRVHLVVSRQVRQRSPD
Experiment: holdup assay
Set-up: key: below the threshold = too weak to quantify, mostly under pKd 3.1 to 4
Settings: plain residues with an end cap or a label only (N-terminal biotin on a linker: ado-ado)

Binder	pKd
QKNKDREYYV [NRXN3, Q9HDB5]	4.08

Biological target: FRMPD2_2, Q68DX3
Sequence (Q68DX3 944-1038): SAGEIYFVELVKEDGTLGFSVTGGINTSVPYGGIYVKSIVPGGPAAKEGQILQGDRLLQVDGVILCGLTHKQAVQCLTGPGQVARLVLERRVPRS
Experiment: holdup assay
Set-up: key: below the threshold = too weak to quantify, mostly under pKd 3.1 to 4
Settings: plain residues with an end cap or a label only (N-terminal biotin on a linker: ado-ado)

Binder	pKd
QKNKDREYYV [NRXN3, Q9HDB5]	3.78

Biological target: MAGI2_4, Q86UL8
Sequence (Q86UL8 772-865): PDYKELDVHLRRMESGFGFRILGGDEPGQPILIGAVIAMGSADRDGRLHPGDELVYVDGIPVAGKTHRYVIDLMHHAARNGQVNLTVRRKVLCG
Experiment: holdup assay
Set-up: key: below the threshold = too weak to quantify, mostly under pKd 3.1 to 4
Settings: plain residues with an end cap or a label only (N-terminal biotin on a linker: ado-ado)

Binder	pKd
QKNKDREYYV [NRXN3, Q9HDB5]	3.8

Biological target: T10, PDZD2_2, O15018
Experiment: holdup assay
Set-up: key: below the threshold = too weak to quantify, mostly under pKd 3.1 to 4
Settings: plain residues with an end cap or a label only (N-terminal biotin on a linker: ado-ado)

Binder	pKd
QKNKDREYYV [NRXN3, Q9HDB5]	4.56

Biological target: IL16_4, Q14005
Sequence (Q14005 1229-1329): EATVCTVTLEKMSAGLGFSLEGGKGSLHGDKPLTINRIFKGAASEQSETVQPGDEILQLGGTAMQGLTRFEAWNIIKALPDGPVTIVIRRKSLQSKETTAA
Experiment: holdup assay
Set-up: key: below the threshold = too weak to quantify, mostly under pKd 3.1 to 4
Settings: plain residues with an end cap or a label only (N-terminal biotin on a linker: ado-ado)

Binder	pKd
QKNKDREYYV [NRXN3, Q9HDB5]	below the threshold

Biological target: Inadl_3, Q8NI35
Sequence (Q8NI35 359-469): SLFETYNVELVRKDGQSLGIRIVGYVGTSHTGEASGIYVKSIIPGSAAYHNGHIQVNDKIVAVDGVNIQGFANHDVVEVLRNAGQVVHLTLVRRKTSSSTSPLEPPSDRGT
Experiment: holdup assay
Set-up: key: below the threshold = too weak to quantify, mostly under pKd 3.1 to 4
Settings: plain residues with an end cap or a label only (N-terminal biotin on a linker: ado-ado)

Binder	pKd
QKNKDREYYV [NRXN3, Q9HDB5]	4.14

Biological target: T11, LIN7C, Q9NUP9
Experiment: holdup assay
Set-up: key: below the threshold = too weak to quantify, mostly under pKd 3.1 to 4
Settings: plain residues with an end cap or a label only (N-terminal biotin on a linker: ado-ado)

Binder	pKd
QKNKDREYYV [NRXN3, Q9HDB5]	3.59

Biological target: T12, GRIP1_4, Q9Y3R0
Experiment: holdup assay
Set-up: key: below the threshold = too weak to quantify, mostly under pKd 3.1 to 4
Settings: plain residues with an end cap or a label only (N-terminal biotin on a linker: ado-ado)

Binder	pKd
QKNKDREYYV [NRXN3, Q9HDB5]	below the threshold
